For data set [1], the target named is HUWE1 (3951–4374), crystallization construct with the N-terminal expression tag (human) (UniProt Q7Z6Z7). Description: SEC-MALS; proteins injected at high concentration (~350 to 400 μM; highest point of Figure 3A, Figures 4A, 4F, 4G, Table 2); Superdex 200 10/300 GL, room temperature, 20 mM HEPES pH 8.0, 250 mM NaCl, 1 mM EDTA, 5 mM DTT. (In general: SEC sorts molecules by how far they enter the pores of the column.)

The target in data set [2] is HUWE1 (3951–4374), untagged (human) (UniProt Q7Z6Z7). Nature of the data set: AUC; sedimentation equilibrium, dimer to monomers (monomer-dimer self-association model, Sedphat); 10 µM protein, 4°C, 10 mM HEPES pH 8.0, 200 mM NaCl, 1 mM EDTA, 1 mM β-mercaptoethanol; 9000, 13,000 and 17,000 rpm.
The target of data set [3] is T1, HUWE1 (3843–4374) (human, UniProt Q7Z6Z7 3843-4374).
T1 construct: source: LOBSTR RIL cells, purified (IMAC, gel filtration)
T1 sequence (looked up): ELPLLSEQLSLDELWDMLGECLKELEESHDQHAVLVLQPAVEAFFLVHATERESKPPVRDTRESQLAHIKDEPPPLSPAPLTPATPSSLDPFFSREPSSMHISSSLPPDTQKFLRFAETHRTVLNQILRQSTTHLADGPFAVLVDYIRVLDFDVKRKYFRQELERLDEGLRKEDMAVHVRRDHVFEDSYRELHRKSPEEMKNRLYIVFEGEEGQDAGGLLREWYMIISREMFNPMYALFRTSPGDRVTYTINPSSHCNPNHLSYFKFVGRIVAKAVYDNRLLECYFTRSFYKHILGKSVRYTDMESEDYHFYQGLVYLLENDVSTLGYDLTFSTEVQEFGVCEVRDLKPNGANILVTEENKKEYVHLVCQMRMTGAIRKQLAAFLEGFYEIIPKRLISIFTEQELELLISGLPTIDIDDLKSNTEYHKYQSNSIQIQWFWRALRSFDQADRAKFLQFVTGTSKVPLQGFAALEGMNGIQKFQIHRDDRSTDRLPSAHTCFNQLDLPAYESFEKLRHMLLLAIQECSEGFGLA
Description: SEC; as the SEC with p14ARF (45-75), but with p14ARF (45-64); result told only in one sentence of the methods, no data shown. To be noted: both partners purified.

In data set [4] the target is T2, HUWE1 (3951–4374), untagged (human, UniProt Q7Z6Z7 3951-4374).
T2 construct: Monomer MW 49.752 kDa (AUC methods); source: LOBSTR RIL cells, purified (IMAC, TEV protease cleavage, second IMAC, gel filtration); not shown: His6, N-terminal, cleaved
T2 sequence (looked up): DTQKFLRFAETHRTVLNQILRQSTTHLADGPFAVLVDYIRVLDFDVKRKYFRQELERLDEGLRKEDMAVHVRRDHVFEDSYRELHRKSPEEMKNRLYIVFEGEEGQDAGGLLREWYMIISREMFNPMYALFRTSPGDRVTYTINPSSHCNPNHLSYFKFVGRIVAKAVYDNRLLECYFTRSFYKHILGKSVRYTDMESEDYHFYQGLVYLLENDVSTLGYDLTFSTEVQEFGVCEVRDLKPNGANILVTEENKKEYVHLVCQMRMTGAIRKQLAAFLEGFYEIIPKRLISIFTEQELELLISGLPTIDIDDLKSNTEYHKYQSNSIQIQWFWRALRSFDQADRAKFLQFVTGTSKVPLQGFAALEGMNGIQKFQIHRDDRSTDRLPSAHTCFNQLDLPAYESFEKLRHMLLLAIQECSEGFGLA
Description: SEC; MBP-tagged activation segment (or MBP) and HUWE1 constructs, each alone at 120 μM and as a 1.5:1 molar mixture; Superdex 200 Increase 3.2/300, 4°C, 20 mM HEPES pH 8.0, 100 mM NaCl, 1 mM EDTA, 5 mM DTT. The conditions noted are these: both partners purified.

Data set [5] addresses T1, HUWE1 (3843–4374). Description: SEC; HUWE1 constructs at 120 μM without and with a four-fold molar excess of p14ARF (45-75); 10% DMSO; Superdex 200 Increase 3.2/300, 4°C; co-elution of the peptide shown by SDS-PAGE. To be noted: both partners purified.
Data set [6] concerns the molecule itself. Description: SEC-MALS; proteins injected at high concentration (~350 to 400 μM; highest point of Figure 3A, Figures 4A, 4F, 4G, Table 2); Superdex 200 10/300 GL, room temperature, 20 mM HEPES pH 8.0, 250 mM NaCl, 1 mM EDTA, 5 mM DTT.

In turn, “HUWE1 (3951–4374), crystallization construct with the N-terminal expression tag (from UniProt Q7Z6Z7 3951-4374) (domain or fragment)” registered a stoichiometry N in data set [1] of 2.
Regarding “HUWE1 (3951–4374), untagged (from UniProt Q7Z6Z7 3951-4374) (domain or fragment)”, the Kd in data set [2] came to 2.9 µM.

B1: p14ARF-derived peptide (residues 45–64), unlabelled (peptide, UniProt Q8N726 45-64, looked up)
peptide: LVLMLLRSQRLGQQPLPRRP
notes: p14ARF, human, residues 45–64; also called p14ARF (45-64); source: synthetic peptide, bought: Elim Biopharm
In the case of B1, in the data set with HUWE1 (3843–4374) [3], the binding result is on record as “binds”.

B2: MBP-tagged activation segment of HUWE1 (residues 3843–3902) (domain or fragment, human, UniProt Q7Z6Z7 3843-3902, looked up)
chain: ELPLLSEQLSLDELWDMLGECLKELEESHDQHAVLVLQPAVEAFFLVHATERESKPPVRD
notes: pETM41: N-terminal TEV protease-cleavable MBP-tag, C-terminal 3C protease-cleavable His6-tag; source: E. coli BL21(DE3), purified (IMAC, gel filtration); not shown: MBP, N-terminal, kept; His6, C-terminal, kept
Consider B2, for which the binding result in data set [4] was “binds”.

B3: p14ARF-derived peptide (residues 45–75) (peptide, UniProt Q8N726 45-75, looked up)
peptide: LVLMLLRSQRLGQQPLPRRPGHDDGQRPSGG
notes: p14ARF, human, residues 45–75; also called p14ARF (45-75); p14ARF-peptide; source: synthetic peptide, bought: Elim Biopharm
In the case of B3, the binding result with HUWE1 (3843–4374) [5] is “binds”.

B4: HUWE1 (3896–4374) (domain or fragment, human, UniProt Q7Z6Z7 3896-4374, looked up)
chain: SKPPVRDTRESQLAHIKDEPPPLSPAPLTPATPSSLDPFFSREPSSMHISSSLPPDTQKFLRFAETHRTVLNQILRQSTTHLADGPFAVLVDYIRVLDFDVKRKYFRQELERLDEGLRKEDMAVHVRRDHVFEDSYRELHRKSPEEMKNRLYIVFEGEEGQDAGGLLREWYMIISREMFNPMYALFRTSPGDRVTYTINPSSHCNPNHLSYFKFVGRIVAKAVYDNRLLECYFTRSFYKHILGKSVRYTDMESEDYHFYQGLVYLLENDVSTLGYDLTFSTEVQEFGVCEVRDLKPNGANILVTEENKKEYVHLVCQMRMTGAIRKQLAAFLEGFYEIIPKRLISIFTEQELELLISGLPTIDIDDLKSNTEYHKYQSNSIQIQWFWRALRSFDQADRAKFLQFVTGTSKVPLQGFAALEGMNGIQKFQIHRDDRSTDRLPSAHTCFNQLDLPAYESFEKLRHMLLLAIQECSEGFGLA
notes: source: LOBSTR RIL cells, purified (IMAC, gel filtration)
On to B4, for which the “stoichiometry N” value in data set [6] amounted to 2.

Usually stoichiometry N stands for the number of molecules, sites or subunits per partner or assembly. By Kd is commonly meant a measure of binding affinity in units of concentration. A high value points to a looser complex.

The values are drawn from paper PMC5308896, “A conformational switch regulates the ubiquitin ligase HUWE1” (eLife, 2017).
